In patent publication US20230183329A1, “COMBINATION THERAPY FOR TTR AMYLOIDOSIS” (Neurimmune AG, priority 2020, published 2023):

Experiments:
[1] = cited from earlier work
misfolded TTR = misfolded TTR (Homo sapiens, UniProt P02766); conditions: cited from earlier work
mis.WT-TTR aggregates = molecular target: T1, mis.WT-TTR aggregates (Homo sapiens, UniProt P02766); assay: Direct ELISA, NI-301.37F1 binding to amyloid wtTTR aggregates in presence of TTR tetramer stabilizers; conditions: for EC50 value of antibody binding to TTR amyloid: versus vehicle
T1 construct: Plasma-purified wtTTR was provided as a solution at a concentration of 2 mg/mL in PBS buffer; from tissue; host or cells: human plasma
Description: 96 well microplates were coated for 1 hour at 37° C. with mis.WT-TTR aggregates diluted to a concentration of 10 μg/mL in PBS buffer pH7.4. Non-specific binding sites were blocked for 1 hour at room temperature (RT) with a blocking buffer containing 2% bovine serum albumin (BSA) and 0.1% tween-20 in PBS buffer. Human NI-301.37F1 antibody was diluted in duplicates to the indicated concentrations in PBS supplemented with tafamidis or diflunisal at 10 μg/mL or corresponding concentration of vehicle buffer, and incubated overnight at 4° C. Binding was determined using an anti-human IgG antibody conjugated with horseradish peroxidase (HRP), followed by measurement of HRP activity in a standard colorimetric assay.
Data were analyzed with the Prism software from GraphPad. EC50 values were estimated using non-linear regression of individual data points using log(agonist) versus response model with variable slope. Data fitting was performed with the least square regression method.
For the assessment of the binding affinity of anti-TTR antibody in the presence of TTR tetramer stabilizer direct ELISA and EC50 determination has been substantially performed in Example 3 of WO 2015/092077 A1. ELISA plates were coated for 1 h at 37° C. with amyloid wtTTR aggregates and blocked for 1 h at room temperature with blocking buffer (PBS pH 7.4, 1% BSA and 0.1% polysorbate 20).
Tafamidis and diflunisal were dissolved in vehicle (80% PBS pH 7.4, 10% ethanol, 10% polysorbate 80) and antibody NI-301.37F1 dilution series were prepared with tafamidis or diflunisal at a final concentration of 10 μg/mL or a corresponding volume of the vehicle. The concentration of 10 μg/mL is […] the maximal peak concentration in patients treated with tafamidis at 80 mg per day (˜6 μg/mL). NI-301.37F1 dilution series were incubated in the ELISA plates overnight at 4° C., and, after washes, NI-301.37F1 was detected using an horseradish peroxidase (HRP)-coupled anti-human IgG antibody and standard detection methods. Data were analyzed with the Prism software from GraphPad. […]

[2] = molecular target: T2, TTR tetramers (tetr.WT-TTR) (Homo sapiens, UniProt P02766); assay: BLI binding kinetic assay, TTR tetramers
T2 construct: Plasma-purified wtTTR was provided as a solution at a concentration of 2 mg/mL in PBS buffer; from tissue; host or cells: human plasma
Description: (§1) The antibody NI-301.37F1 was loaded on anti-human capture sensors at 5 μg/mL in PBS for 5 min at 25° C. The binding assay was performed with soluble WT-TTR amyloid aggregates and tetrameric WT-TTR. A baseline was performed in 1× kinetic buffer for 3 min, the association was measured for 10 min and the dissociation for another 10 min in 1× kinetic buffer, all steps performed at 25° C. with shaking at 1000 rpm. A reference sample was also included consisting in 1× kinetic buffer.
(§2) Data were analyzed in ForteBio Data Analysis 8.2 software, using reference subtraction and interstep correction between association and dissociation.
NI-301.37F1 absent binding to TTR tetramers was investigated in presence and absence of TTR stabilizers using BLI. Soluble ATTR oligomers were included in this experiment to serve as positive controls. […]

[3] = molecular target: T3, soluble ATTR oligomers (mis.WT-TTR) (Homo sapiens, UniProt P02766); assay: BLI binding kinetic assay, soluble ATTR oligomers; conditions: in presence or absence of AG10 or diflunisal at 5 μg/mL
T3 construct: Plasma-purified wtTTR was provided as a solution at a concentration of 2 mg/mL in PBS buffer; from tissue; host or cells: human plasma
Description: as §1, §2
NI-301.37F1 absent binding to TTR tetramers was investigated in presence and absence of TTR stabilizers using BLI. Soluble ATTR oligomers were included in this experiment to serve as positive controls.
NI-301.37F1 binding to ATTR oligomers and TTR tetramers was evaluated in presence of the TTR stabilizers AG10 and diflunisal at 5 μg/mL, or in presence of corresponding vehicle buffer using BLI.

binding to TTR-diflunisal complexes ([2]; TTR tetramers in presence of diflunisal) | binding to TTR-tafamidis complexes ([2]; TTR tetramers in presence of tafamidis) | binding selectivity (absent binding to TTR tetramers) ([2]; in presence of TTR stabilizers (conclusion)) | binding to TTR tetramers in solution ([2]; no stabilizer) | binding to ATTR oligomers in solution [3] | Molecule | mean half-life ([1]; human) | maximal peak concentration ([1]; patients treated with tafamidis at 80 mg per day) | binding affinity to misfolded TTR (misfolded TTR) | binding to amyloidogenic TTR (mis.WT-TTR aggregates; in the presence of TTR stabilizers tafamidis and diflunisal, 10 μg/mL) | EC50 value of antibody binding to TTR amyloid (mis.WT-TTR aggregates; in the presence of diflunisal at 10 μg/mL) | EC50 value of antibody binding to TTR amyloid (mis.WT-TTR aggregates; in the presence of tafamidis at 10 μg/mL)
– | – | – | – | – | O=C(O)c1ccc2nc(-c3cc(Cl)cc(Cl)c3)oc2c1 [tafamidis] | approximately 49 hours | ~6 µg/mL | – | – | – | –
did not bind | did not bind | maintained | did not bind | virtually identical | NI-301.37F1: human-derived monoclonal anti-TTR antibody binding epitope TTR41-45, selective for misfolded TTR, disclosed in WO 2015/092077 A1 (antibody, V domains shown) VH: QVQLQESGPGLVKPSETLSLTCSVSGGSIISRSSYWGWIRQPPGKGLEWIGGIYHSGNTYDNPSLKSRLTMSVDTSKNQFSLNLRSVTAADTAVYYCARIVPGGDAFDIWGQGTMVTVSS VL: DIQMTQSPSSLSASVGDRVTIACRASQSVGTYLNWYQQKRGKAPKLLIFAASSLQSGVPSRFSGSGSGTDFTLTISSLQPEDFATYYCQQSYSSPPTFGQGTKVEIK | – | – | sub-nanomolar range | maintained | increased | remained substantially unaffected
